Results as given in US20150045310A1 (TRUSTEES OF PRINCETON UNIVERSITY, published 2015).
Read-outs that look alike come from different tables or passages of the source. Bridges are numbered along the chain shown (N, C = ends). Where no end group is shown, it is not given here. [ ]: non-standard residue; d: D form. eCPX = enhanced circularly permuted OmpX display scaffold; S5 = C=CCCC[C@](C)(N)C(=O)O; linker = not defined here

T1: Bcl-w (biotinylated pro-survival Bcl-2 family protein) (UniProt Q92843 1-164, limits assumed, biotinylated (co-expressed E. coli biotin ligase BirA))
T1 sequence (looked up): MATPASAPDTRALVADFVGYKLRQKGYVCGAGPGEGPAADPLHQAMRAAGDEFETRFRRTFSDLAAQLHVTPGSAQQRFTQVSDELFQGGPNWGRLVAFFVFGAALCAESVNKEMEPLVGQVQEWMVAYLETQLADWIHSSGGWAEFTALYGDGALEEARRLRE


How the values were obtained:
[1] = biological target: T2, Mcl-1 (biotinylated pro-survival Bcl-2 family protein) (UniProt Q07820 171-327, limits assumed, biotinylated (co-expressed E. coli biotin ligase BirA)); experiment: flow cytometry of E. coli displaying the peptide on eCPX, biotinylated target + streptavidin-PE; apparent Kd
T2 construct: In the functional rows the target is the endogenous Mcl-1 of the human cancer cell lines
T2 sequence (Q07820 171-327 limits assumed): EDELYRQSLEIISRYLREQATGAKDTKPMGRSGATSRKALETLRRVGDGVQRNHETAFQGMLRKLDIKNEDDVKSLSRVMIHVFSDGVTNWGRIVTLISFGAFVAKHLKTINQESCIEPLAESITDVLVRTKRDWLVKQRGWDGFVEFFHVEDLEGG
Description: (§1) All binding assays were performed using MC1061 strain. Briefly, a 5 mL culture of a library sample or individual variant was grown to OD₆₀₀˜0.6, and induced with arabinose (0.2%) at RT for 2.5 hours. Cells were pelleted (1 mL culture, 6000 rpm, 5 min) and resuspended in 1 mL PBS. A portion of the cell suspension (50 μL) was mixed with the desired concentration of pro-survival protein to a total volume of 500 μL. The mixture was allowed to rotate at room temperature for 1 hour for equilibrium binding. The cells were pelleted again (6000 rpm, 20 min), resuspended with 100 μL of 50 nM streptavidin-phycoerythrin (SAPE), and incubated on ice in the dark for 30 min. After a final centrifugation, the cell pellets were stored on ice and resuspended in 2 mL of PBS for flow cytometry measurements. A Partec CyFlow ML Flow Cytometer equipped with a 488 nm laser was used to analyze the cells. A FACSVantage SE cell sorter was used for cell sorting in single cell mode.
(§2) A two parameter model was used to extract apparent binding affinity (Kd) from flow cytometry binding experiments.

[2] = biological target: T2, Mcl-1 (biotinylated pro-survival Bcl-2 …); experiment: cell-based or functional assay
[3] = biological target: T2, Mcl-1 (biotinylated pro-survival Bcl-2 …); experiment: cell-based or functional assay; remark: listed apart in the source
[4] = biological target: T2, Mcl-1 (biotinylated pro-survival Bcl-2 …); experiment: cell-based or functional assay; remark: listed apart in the source
[5] = biological target: T2, Mcl-1 (biotinylated pro-survival Bcl-2 …); experiment: cell-based or functional assay; remark: listed apart in the source
[6] = biological target: T1, Bcl-w (biotinylated pro-survival Bcl-2 …); experiment: flow cytometry of E. coli displaying the peptide on eCPX, biotinylated target + streptavidin-PE; apparent Kd
Description: as §1, §2

[7] = biological target: T2, Mcl-1 (biotinylated pro-survival Bcl-2 …); experiment: as above; remark: listed apart in the source
Description: as §1, §2

[8] = biological target: T3, Bcl-xL (biotinylated pro-survival Bcl-2 family protein) (UniProt Q07817 1-209, biotinylated (co-expressed E. coli biotin ligase BirA)); experiment: as above
T3 sequence (Q07817 1-209): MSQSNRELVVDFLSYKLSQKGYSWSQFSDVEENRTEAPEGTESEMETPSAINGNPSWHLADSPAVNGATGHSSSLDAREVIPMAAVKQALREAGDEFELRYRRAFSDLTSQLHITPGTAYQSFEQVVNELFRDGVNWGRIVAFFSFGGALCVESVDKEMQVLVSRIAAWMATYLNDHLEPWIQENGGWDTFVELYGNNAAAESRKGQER
Description: as §1, §2

[9] = biological target: Bcl-2 (biotinylated pro-survival Bcl-2 family protein) (UniProt P10415 1-217, limits assumed, biotinylated (co-expressed E. coli biotin ligase BirA)); experiment: as above
Sequence of Bcl-2 (biotinylated pro-survival Bcl-2 family protein) (P10415 1-217 limits assumed): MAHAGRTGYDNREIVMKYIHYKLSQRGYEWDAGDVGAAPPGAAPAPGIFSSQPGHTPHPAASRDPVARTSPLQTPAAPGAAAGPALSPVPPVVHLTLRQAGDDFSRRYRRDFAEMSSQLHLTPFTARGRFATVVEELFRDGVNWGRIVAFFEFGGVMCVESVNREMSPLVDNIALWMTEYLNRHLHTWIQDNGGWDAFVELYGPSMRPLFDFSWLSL
Description: as §1, §2

[10] = biological target: T3, Bcl-xL (biotinylated pro-survival Bcl-2 …); experiment: apparent Kd, bacterial surface display and flow cytometry
Description: as §1, §2

[11] = biological target: T3, Bcl-xL (biotinylated pro-survival Bcl-2 …); experiment: flow cytometry of E. coli displaying the peptide on eCPX, biotinylated target + streptavidin-PE; apparent Kd; remark: listed apart in the source
Description: as §1, §2

[12] = biological target: T2, Mcl-1 (biotinylated pro-survival Bcl-2 …); experiment: apparent Kd, bacterial surface display and flow cytometry
Description: as §1, §2

[13] = biological target: T2, Mcl-1 (biotinylated pro-survival Bcl-2 …); experiment: cell-based or functional assay; remark: listed apart in the source

| Binder | Kd [1] | Kd [6] | Kd [7] | Kd [8] | Kd [9] | Kd [11] | also measured |
| --- | --- | --- | --- | --- | --- | --- | --- |
| WMAQILRRIGDEVN-{linker-eCPX} (reading uncertain; also: printed as Trp-Met-Ala-Gln-Ile-Leu-Arg-Arg-Ile-Gly-Asp-Glu-Val-Asn, Clone selected against Mcl-1; not shown: eCPX display scaffold and its linker, fused C-terminal to the peptide) [Bim BH3 14-mer variant M2-3 displayed on eCPX] | 11.5 nM |  |  |  |  |  |  |
| WVAQLLR[S5]IGD[S5]VN-NH2 (staple 8-12; N-terminus assumed; SMILES CC[C@H](C)[C@@H]1NC(=O)[C@@](C)(NC(=O)[C@H](CCCNC(=N)N)NC(=O)[C@H](CC(C)C)NC(=O)[C@H](CC(C)C)NC(=O)[C@H](CCC(N)=O)NC(=O)[C@H](C)NC(=O)[C@@H](NC(=O)[C@@H](N)Cc2c[nH]c3ccccc23)C(C)C)CCCC=CCCC[C@@](C)(C(=O)N[C@H](C(=O)N[C@@H](CC(N)=O)C(N)=O)C(C)C)NC(=O)[C@H](CC(=O)O)NC(=O)CNC1=O) [stapled M2-2 peptide] |  |  |  |  |  |  | IC50 (µM), MTT cytotoxicity assay, MDA231 cells [2]: 3.7 µM; IC50 (µM), MTT cytotoxicity assay, PC3 cells [3]: 4.7 µM; IC50 (µM), MTT cytotoxicity assay, MCF7 cells [4]: 5.7 µM; IC50 (µM), MTT cytotoxicity assay, HeLa cells [5]: 6.1 µM |
| WVAQWLRRWGDEFN (also: displayed as fusion to eCPX scaffold (letters not given here), Clone selected against Bcl-xL; not shown: eCPX display scaffold and the linker to it) [Bim BH3 14-mer variant X2-3 displayed on eCPX] |  | 5890 nM | 1300 nM | 9.28 nM | 929 nM | 9.28 nM | fold increase in apparent affinity against wild-type Bim 14-mer [10]: 25 fold |
| WVAQTLRRWGDEFN-{linker-eCPX} (reading uncertain; also: printed as Trp-Val-Ala-Gln-Thr-Leu-Arg-Arg-Trp-Gly-Asp-Glu-Phe-Asn, Clone selected against Bcl-xL; not shown: eCPX display scaffold and its linker, fused C-terminal to the peptide) [Bim BH3 14-mer variant X2-10 displayed on eCPX] |  |  |  |  |  | 17 nM |  |
| WLAQLLRRIGDEIN-{linker-eCPX} (reading uncertain; also: printed as Trp-Leu-Ala-Gln-Leu-Leu-Arg-Arg-Ile-Gly-Asp-Glu-Ile-Asn, Clone selected against Mcl-1; not shown: eCPX display scaffold and its linker, fused C-terminal to the peptide) [Bim BH3 14-mer variant M2-4 displayed on eCPX] | 9.85 nM | 542 nM | 9.85 nM | 333 nM | 93.7 nM |  |  |
| WIAQELRRIGDEFN-{linker-eCPX} (reading uncertain, also called WT; Bim WT; not shown: eCPX (enhanced circularly permuted OmpX) display scaffold and its linker, fused C-terminal to the peptide) [wild-type Bim BH3 14-mer peptide (residues 147-160) displayed on eCPX] | 37.7 nM | 594 nM | 37.7 nM | 251 nM | 97.9 nM | 251 nM |  |
| WIAQLLRRIGDEVN-{linker-eCPX} (reading uncertain; also: printed as Trp-Ile-Ala-Gln-Leu-Leu-Arg-Arg-Ile-Gly-Asp-Glu-Val-Asn, Clone selected against Mcl-1; not shown: eCPX display scaffold and its linker, fused C-terminal to the peptide) [Bim BH3 14-mer variant M2-1 displayed on eCPX] | 10.3 nM |  |  |  |  |  |  |
| WIAQQLRRIGDEFN (not fully specified, also called pseudo-wild-type Bim; Bim E151Q; not shown: eCPX display scaffold and the linker to it) [Bim BH3 14-mer E151Q (pseudo-wild-type) displayed on eCPX] |  | 642 nM | 45.2 nM | 47.4 nM | 175 nM |  | fold increase in apparent affinity against wild-type Bim 14-mer [10]: 5 fold |
| WVAQLLRRIGDEVN-{linker-eCPX} (reading uncertain; also: printed as Trp-Val-Ala-Gln-Leu-Leu-Arg-Arg-Ile-Gly-Asp-Glu-Val-Asn, Clone selected against Mcl-1; not shown: eCPX display scaffold and its linker, fused C-terminal to the peptide) [Bim BH3 14-mer variant M2-2 displayed on eCPX] | 5.8 nM |  | 5.8 nM | 2800 nM |  |  | fold increase in apparent affinity against wild-type Bim 14-mer [12]: 6 fold |
| WIAQLLRRIGDEFN (also called Bim E151L; pSZ55; not shown: eCPX display scaffold and the linker to it) [Bim BH3 14-mer E151L displayed on eCPX] |  |  |  |  |  |  | fold increase in apparent affinity against wild-type Bim 14-mer [12]: 2 fold |
| WIAQILRRIGDEFN (also called E1511; Bim E151I; not shown: eCPX display scaffold and the linker to it) [Bim BH3 14-mer E151I displayed on eCPX] |  |  |  |  |  |  | fold increase in apparent affinity against wild-type Bim 14-mer [12]: 2 fold |
| WLAQLLR[S5]IGD[S5]IN-NH2 (staple 8-12; N-terminus assumed; SMILES CC[C@H](C)[C@@H]1NC(=O)[C@@](C)(NC(=O)[C@H](CCCNC(=N)N)NC(=O)[C@H](CC(C)C)NC(=O)[C@H](CC(C)C)NC(=O)[C@H](CCC(N)=O)NC(=O)[C@H](C)NC(=O)[C@H](CC(C)C)NC(=O)[C@@H](N)Cc2c[nH]c3ccccc23)CCCC=CCCC[C@@](C)(C(=O)N[C@H](C(=O)N[C@@H](CC(N)=O)C(N)=O)[C@@H](C)CC)NC(=O)[C@H](CC(=O)O)NC(=O)CNC1=O) [stapled M2-4 peptide] |  |  |  |  |  |  | IC50 (µM), MTT cytotoxicity assay, MDA231 cells [2]: 4.4 µM; IC50 (µM), MTT cytotoxicity assay, PC3 cells [3]: 1.4 µM; IC50 (µM), cytotoxicity, HeLa cells [13]: 1.04 µM; IC50 (µM), cytotoxicity, MCF7 cells [13]: 5.72 µM; IC50 (µM), cytotoxicity, MDA231 cells [13]: 4.39 µM; IC50 (µM), cytotoxicity, PC3 cells [13]: 1.36 µM; IC50 (µM), MTT cytotoxicity assay, MCF7 cells [4]: 5.7 µM; IC50 (µM), MTT cytotoxicity assay, HeLa cells [5]: 1 µM |
| WLAQLLRRYGDEFN (also: displayed as fusion to eCPX scaffold (letters not given here), Clone selected against Bcl-xL; not shown: eCPX display scaffold and the linker to it) [Bim BH3 14-mer variant X2-8 displayed on eCPX] |  | 946 nM | 2580 nM | 17.8 nM | 2350 nM | 17.8 nM |  |
